Blank lines part the entries; values can stand above or below the binder they belong to. Square brackets hold non-standard residues; d marks the D form. * marks the point of attachment. dBpa = N[C@H](Cc1ccc(C(=O)c2ccccc2)cc1)C(=O)O; Boc = CC(C)(C)OC(=O)*; Aib = CC(C)(N)C(=O)O
Assays:
γ-secretase [1] = assay: cell-based or functional assay
γ-secretase [2] = assay: cell-based or functional assay; remark: listed apart in the source

IC50: concentration of compound that reduced production of total Aβ by 50% in a cell-based assay using CHO cells stably transfected with human APP (γ-secretase [1]): 6 µM
Binder: Boc-VVI[Aib][Thr(OBz)]V[Aib]-OMe [Boc-Val-Val-Ile-Aib-Thr(OBz)-Val-Aib-OMe]

IC50 of blocking Aβ production in APP-transfected cells (γ-secretase [2]): 2 µM
B1: Boc-Aib-Ala-Leu-Aib-Ala-Leu-Aib-Ala-Leu-Aib-O-methylester (peptide)
peptide: Boc-[Aib]AL[Aib]AL[Aib]AL[Aib]-OMe
SMILES: COC(=O)C(C)(C)NC(=O)[C@H](CC(C)C)NC(=O)[C@H](C)NC(=O)C(C)(C)NC(=O)[C@H](CC(C)C)NC(=O)[C@H](C)NC(=O)C(C)(C)NC(=O)[C@H](CC(C)C)NC(=O)[C@H](C)NC(=O)C(C)(C)NC(=O)OC(C)(C)C

IC50: concentration of compound that reduced production of total Aβ by 50% in a cell-based assay using CHO cells stably transfected with human APP (γ-secretase [1]): 3 µM
Binder: Boc-VG[Aib]VVI[Aib][Thr(OBz)]V[Aib]-OMe [Boc-Val-Gly-Aib-Val-Val-Ile-Aib-Thr(OBz)-Val-Aib-OMe]

IC50: concentration of compound that reduced production of total Aβ by 50% in a cell-based assay using CHO cells stably transfected with human APP (γ-secretase [1]): 15 µM
Binder: Boc-IA[Thr(OBz)][Aib]IV[Aib]-OMe [Boc-Ile-Ala-Thr(OBz)-Aib-Ile-Val-Aib-OMe]

IC50 in the same cell-based assay using CHO cells stably transfected with human APP (production of total Aβ) (γ-secretase [2]): 0.1 µM
Binder: Boc-[dV]G[Aib][dV][dV][dBpa][Aib][dThr(OBz)][dV][Aib]-OMe [Boc-D-Val-Gly-Aib-D-Val-D-Val-D-BPA-Aib-D-Thr(OBz)-D-Val-Aib-OMe]

IC50: concentration of compound that reduced production of total Aβ by 50% in a cell-based assay using CHO cells stably transfected with human APP (γ-secretase [1]): 25 µM
Binder: Boc-A[Thr(OBz)][Aib]IV[Aib]-OMe [Boc-Ala-Thr(OBz)-Aib-Ile-Val-Aib-OMe]

IC50: concentration of compound that reduced production of total Aβ by 50% in a cell-based assay using CHO cells stably transfected with human APP (γ-secretase [1]): 2 µM
Binder: Boc-V[Aib]IA[Thr(OBz)][Aib]IV[Aib]-OMe [Boc-Val-Aib-Ile-Ala-Thr(OBz)-Aib-Ile-Val-Aib-OMe]

IC50: concentration of compound that reduced production of total Aβ by 50% in a cell-based assay using CHO cells stably transfected with human APP (γ-secretase [1]): 10 µM
Binder: Boc-[Aib]IA[Thr(OBz)][Aib]IV[Aib]-OMe [Boc-Aib-Ile-Ala-Thr(OBz)-Aib-Ile-Val-Aib-OMe]

IC50: concentration of compound that reduced production of total Aβ by 50% in a cell-based assay using CHO cells stably transfected with human APP (γ-secretase [1]): 12 µM
Binder: Boc-VI[Aib][Thr(OBz)]V[Aib]-OMe [Boc-Val-Ile-Aib-Thr(OBz)-Val-Aib-OMe]

IC50: concentration of compound that reduced production of total Aβ by 50% in a cell-based assay using CHO cells stably transfected with human APP (γ-secretase [1]): 6 µM
Binder: Boc-[Aib]VVI[Aib][Thr(OBz)]V[Aib]-OMe [Boc-Aib-Val-Val-Ile-Aib-Thr(OBz)-Val-Aib-OMe]

IC50: concentration of compound that reduced production of total Aβ by 50% in a cell-based assay using CHO cells stably transfected with human APP (γ-secretase [1]): 3 µM
Binder: Boc-G[Aib]VVI[Aib][Thr(OBz)]V[Aib]-OMe [Boc-Gly-Aib-Val-Val-Ile-Aib-Thr(OBz)-Val-Aib-OMe]

IC50: concentration of compound that reduced production of total Aβ by 50% in a cell-based assay using CHO cells stably transfected with human APP (γ-secretase [1]): 5 µM
Binder: Boc-GV[Aib]IA[Thr(OBz)][Aib]IV[Aib]-OMe [Boc-Gly-Val-Aib-Ile-Ala-Thr(OBz)-Aib-Ile-Val-Aib-OMe]

Source: patent US20030186877A1 (BRIGHAM AND WOMEN S HOSPITAL, published 2003)
